In publication PMC5512693, “Bacterial RadA is a DnaB-type helicase interacting with RecA to promote bidirectional D-loop extension” (Nature Communications, 2017):
Each block holds one molecule with its values, some of them ahead of it.

Key:
[1] = target: RadA R253A, purified without tag (S. pneumoniae); assay: SEC; gel filtration of purified untagged RadA proteins on Superdex 200 increase 10/300 in 25 mM Tris pH 8, 200 mM NaCl, 20% glycerol; calibrated with 43, 158 and 440 kDa standards
[2] = target: RadA K101A, purified without tag (S. pneumoniae); assay: as above
[3] = target: full-length pneumococcal RadA (RadAFL), preparation for structural analysis (S. pneumoniae); assay: SEC-MALS; samples at 2 mg/ml injected on Superdex200 Increase coupled to MALS and refractive index detection, 0.4 ml/min, 298 K; hexamer independent of nucleotide and Mg2+
RadA (RadAFL) = tested on: T1, RadA (RadAFL); assay: coupled spectrophotometric ATPase assay (pyruvate kinase / lactate dehydrogenase, NADH at […] nm), Michaelis-Menten fit; type: biochemical, Streptococcus pneumoniae; settings: ATP 0-2 mM, 600 nM RadA, 2 uM nt phiX174 ssDNA, 4 mM Mg(OAc)2, pH 7.5, 37 C
T1 construct: full length, 453 residues, hexamer; recombinant in E. coli; ATPase work with native untagged protein (pET21d); crystal with SeMet RadAFL (pET-radA or StrepII-tagged IBA13-radA), C4 domain (1-35) unresolved

[4] = target: P domain of pneumococcal RadA (RadAP) (S. pneumoniae); assay: SEC-MALS; samples at 2 mg/ml injected on Superdex200 Increase coupled to MALS and refractive index detection, 0.4 ml/min, 298 K; hexamer independent of nucleotide and Mg2+
[5] = target: RadA K251A, purified without tag (S. pneumoniae); assay: SEC; gel filtration of purified untagged RadA proteins on Superdex 200 increase 10/300 in 25 mM Tris pH 8, 200 mM NaCl, 20% glycerol; calibrated with 43, 158 and 440 kDa standards

Molecule: RadA R253A, purified without tag (enzyme)
stoichiometry N [1]: 6

Molecule: RadA K101A, purified without tag (enzyme)
stoichiometry N [2]: 6

stoichiometry N [3]: 6
Molecule: full-length pneumococcal RadA (RadAFL), preparation for structural analysis (enzyme)

Molecule: Nc1ncnc2c1ncn2[C@@H]1O[C@H](COP(=O)(O)OP(=O)(O)OP(=O)(O)O)[C@@H](O)[C@H]1O [ATP]
Km (RadA (RadAFL)): 150 µM

stoichiometry N [4]: 6
Molecule: P domain of pneumococcal RadA (RadAP) (domain or fragment)

Molecule: RadA K251A, purified without tag (enzyme)
stoichiometry N [5]: 6
